# Assay results: patent US9169496B2, “Method for the enzymatic production of butadiene” (Scientist of Fortune, S.A., priority 2011, dated 2015)
# B1: monoterpene synthase from Eucalyptus globulus, SEQ ID NO: 8 (Eucalyptus globulus) (protein)
# chain: MALRLLFTPHLPVLSSRRANGRVRCSASTQISDPQEGRRSANYQPSVWTYNYLQSIVAGEGRQSRREVEQQKEKVQILEEEVRGALNDEKAETFTIFATVDDIQRLGLGDHFEEDISNALRRCVSKGAVFMSLQKSLHGTALGFRLLRQHGYEVSQDVFKIFLDESGSFVKTLGGDVQGVLSLYEASHLAFEEEDILHKARSFAIKHLENLNSDVDKDLQDQVKHELELPLHRRMPLLEARRSIEAYSRREYTNPQILELALTDFNVSQSTLQRDLQEMLGWWNNTGLAKRLSFARDRLIECFFWAVGIAHEPSLSICRKAVTKAFALILVLDDVYDVFGTLEELELFTEAVRRWDLNAVEDLPVYMKLCYLALYNSVNEMAYETLKEKGENVIPYLAKAWYDLCKAFLQEAKWSNSRIIPGVEEYLNNGWVSSSGSVMLIHAYFLASPSIRKEELESLEHYHDLLRLPSLIFRLTNDIASSSAELERGETTNSIRCFMQEKGISELEARECVKEEIDTAWKKMNKYMVDRSTFNQSFVRMTYNLARMAHCVYQDGDAIGSPDDLSWNRVHSLIIKPISPAA
# B2: short chain alcohol dehydrogenase-like protein from Hahella chejuensis, SEQ ID NO: 17 (Hahella chejuensis KCTC 2396) (protein)
# chain: MNYFVTGGTGFIGRFLVPKLLKRGGTVYLLVREASLPKLDELRERWNASDEQVVGVVGDLAQPMLGVSEKDAAMLRGKVGHFFHLAAIYDMQASAESQEQANIEGTRNAVKLADSLKAACFHHVSSIAAAGLYRGIFREDMFEEAEKLDNPYLRTKHESEKVVREECQTPWRVYRPGMVVGHSKTGEIDKIDGPYYFFKLIQKLRSALPQWMPTVGLEGGRINIVPVDFVVDAMDHIAHAEGEDGKCFHLTDPDPYKVGEILNIFAEAGHAPKMAMRIDARMFGFIPPMIRQGIARLPPVQRMKNAVLNDLGIPDEVMSFINYPTRFDNRETERLLKGTAIAVPRLQDYSPAIWDYWERHLDPDLHKDRTLRGAVEGRVCVITGATSGIGLSAARKLAEAGAKVVIAARTLEKLQEVKKELEELGGEVYEYSVDLSDLEDCDRFVANVLKDLGHVDVLVNNAGRSIRRSIQHAFDRFHDFERTMQLNYFGSLRLIMGFAPSMLERRRGHIVNISSIGVLTNAPRFSAYVASKAALDAFSRCAAAEFSDKNVTFTTINMPLVRTPMISPTKIYDSVPTLTPEEAADLVAEAIIHRPKRIATRLGVFAQVLHSMAPKFSEIIMNTGFKMFPDSSAATGGKDGEKPKVSTEQVAFAAIMRGIHW
# B3: 4-methyl-5-(2-hydroxyethyl)thiazole kinase (hydroxyethylthiazole kinase, EC 2.7.1.50) from Escherichia coli, SEQ ID NO:2 (Escherichia coli K-12) (protein)
# chain: MQVDLLGSAQSAHALHLFHQHSPLVHCMTNDVVQTFTANTLLALGASPAMVIETEEASQFAAIASALLINVGTLTQPRAQAMRAAVEQAKSSQTPWTLDPVAVGALDYRRHFCHELLSFKPAAIRGNASEIMALAGIANGGRGVDTTDAAANAIPAAQTLARETGAIVVVTGEMDYVTDGHRIIGIHGGDPLMTKVVGTGCALSAVVAACCALPGDTLENVASACHWMKQAGERAVARSEGPGSFVPHFLDALWQLTQEVQA
# B4: isopentenyl monophosphate kinase from Thermoplasma acidophilum, SEQ ID NO:4 (Thermoplasma acidophilum DSM 1728) (protein)
# chain: MMILKIGGSVITDKSAYRTARTYAIRSIVKVLSGIEDLVCVVHGGGSFGHIKAMEFGLPGPKNPRSSIGYSIVHRDMENLDLMVIDAMIEMGMRPISVPISALRYDGRFDYTPLIRYIDAGFVPVSYGDVYIKDEHSYGIYSGDDIMADMAELLKPDVAVFLTDVDGIYSKDPKRNPDAVLLRDIDTNITFDRVQNDVTGGIGKKFESMVKMKSSVKNGVYLINGNHPERIGDIGKESFIGTVIR
# B5: isopentenyl monophosphate kinase from Methanocaldococcus jannaschii, SEQ ID NO:6 (Methanocaldococcus jannaschii DSM 2661) (protein)
# chain: MLTILKLGGSILSDKNVPYSIKWDNLERIAMEIKNALDYYKNQNKEIKLILVHGGGAFGHPVAKKYLKIEDGKKIFINMEKGFWEIQRAMRRFNNIIIDTLQSYDIPAVSIQPSSFVVFGDKLIFDTSAIKEMLKRNLVPVIHGDIVIDDKNGYRIISGDDIVPYLANELKADLILYATDVDGVLIDNKPIKRIDKNNIYKILNYLSGSNSIDVTGGMKYKIDMIRKNKCRGFVFNGNKANNIYKALLGEVEGTEIDFSE
# B6: isopentenyl monophosphate kinase from Methanothermobacter thermautotrophicus, SEQ ID NO:5 (Methanothermobacter thermautotrophicus str. Delta H) (protein)
# chain: MIILKLGGSVITRKDSEEPAIDRDNLERIASEIGNASPSSLMIVHGAGSFGHPFAGEYRIGSEIENEEDLRRRRFGFALTQNWVKKLNSHVCDALLAEGIPAVSMQPSAFIRAHAGRISHADISLIRSYLEEGMVPVVYGDVVLDSDRRLKFSVISGDQLINHFSLRLMPERVILGTDVDGVYTRNPKKHPDARLLDVIGSLDDLESLDGTLNTDVTGGMVGKIRELLLLAEKGVESEIINAAVPGNIERALLGEEVRGTRITGKH
# Legend:
# [1] = substrate: C/C=C/COP(=O)(O)O; experiment: Kinetic parameters of enzyme catalyzed production of 1,3-butadiene from trans crotyl monophosphate (GC/FID); assay type: biochemical, Eucalyptus globulus; details: other: 0-25 mM trans crotyl monophosphate, pH 7.5, 37° C., 20 mM MgCl2, 20 mM KCl, 0.5-4 h
# Protocol: (§1) One ml of the gaseous phase was then collected and directly injected into a Varian GC-430 gas chromatograph equipped with a flame ionization detector (FID). Nitrogen was used as carrier gas with a flow rate of 1.5 ml/min. Volatile compounds were chromatographically separated on RT-Alumina Bond/Na2SO4 column (Restek) using an isothermal mode at 130° C. The enzymatic reaction product was identified by direct comparison with 1,3-butadiene standard (Sigma).
# The kinetic parameters of enzyme catalyzed production of 1,3-butadiene from trans crotyl monophosphate were measured under the following conditions: • 50 mM Tris-HCl pH 7.5 • 20 mM MgCl2 • 20 mM KCl • 2 mM DTT • 0-25 mM trans crotyl monophosphate
# (§2) The reaction was initiated by addition of 0.25 mg of purified monoterpene synthase from Eucalyptus globulus to 0.5 ml of reaction mixture. An enzyme-free control reaction was carried out in parallel. Assays were incubated at 37° C. for 0.5-4 h in a sealed vial of 1.5 ml (Interchim) with shaking.
# (§3) 1,3-butadiene production was analyzed using the GC/FID procedure described in Example 12.
# [2] = substrate: C/C=C/COP(=O)(O)OP(=O)(O)O; experiment: Kinetic parameters of enzyme catalyzed production of 1,3-butadiene from trans crotyl diphosphate (GC/FID); assay type: biochemical, Eucalyptus globulus; details: other: 0-25 mM trans crotyl diphosphate, pH 7.5, 37° C., 20 mM MgCl2, 20 mM KCl, 0.5-4 h
# Protocol: as §1
# The kinetic parameters of enzyme catalyzed production of 1,3-butadiene from trans crotyl […] were measured under the following conditions: • 50 mM Tris-HCl pH 7.5 • 20 mM MgCl2 • 20 mM KCl • 2 mM DTT • 0-25 mM trans crotyl diphosphate
# as §2, §3
# [3] = substrate: NC(=O)C1=CN([C@@H]2O[C@H](COP(=O)(O)OP(=O)(O)OC[C@H]3O[C@@H](n4cnc5c(N)ncnc54)[C@H](OP(=O)(O)O)[C@@H]3O)[C@@H](O)[C@H]2O)C=CC1; experiment: purified protein, by the assay type; details: other: crotonyl-CoA fixed at 5 mM, NADPH 0 to 0.8 mM, pH 7.5, 37° C.
# [4] = substrate: C/C=C/C(=O)SCCNC(=O)CCNC(=O)[C@H](O)C(C)(C)COP(=O)(O)OP(=O)(O)OC[C@H]1O[C@@H](n2cnc3c(N)ncnc32)[C@H](O)[C@@H]1OP(=O)(O)O; experiment: Kinetic parameters towards crotonyl-CoA, overall reaction (crotyl alcohol quantification by HPLC); assay type: biochemical, Hahella chejuensis; details: other: NADPH fixed at 80 mM, crotonyl-CoA 0 to 32 mM, pH 7.5, 37° C.
# Protocol: The reactions were initiated by addition of 150 μg of purified dehydrogenase/reductase to 150 μl of reaction mixture. Assays were incubated at 37° C. for 0.5-6 h. The reactions were stopped by heating at 65° C. for 5 minutes, reaction mixtures were centrifuged and 120 μl of the clarified supernatant were transferred into a clean vial. The reaction products were then extracted with an equal volume of ethyl acetate. 100 μl of the upper ethyl acetate phase was transferred into a clean vial for HPLC analysis. Commercial crotonaldehyde and crotyl alcohol were used as reference. HPLC-UV analysis was performed using a 1260 Inifinity LC System (Agilent). 10 μl of samples were separated on Zorbax SB-Aq column (250×4.6 mm, 3.5 μm particle size) with a mobile phase flow rate of 1.5 ml/min. The mobile phase consisted of 95:5 (v/v) H2O/Acetonitrile containing 8.4 mM sulfuric acid.
# Kinetic parameters for the overall reaction were determined by crotyl alcohol quantification using HPLC procedure described in Example 17.
# [5] = substrate: C/C=C/CO; experiment: Kinetic parameters of crotyl alcohol phosphorylation (pyruvate kinase/lactate dehydrogenase coupled spectrophotometric assay); assay type: biochemical, Escherichia coli; details: other: crotyl alcohol phosphorylation, pH 7.5, 37° C., 5 mM ATP
# Protocol: (§4) The release of ADP that is associated with crotyl alcohol phosphorylation was quantified using the pyruvate kinase/lactate dehydrogenase coupled assay (FIG. 5). The purified 4-methyl-5-(2-hydroxyethyl)thiazole kinases from Escherichia coli (SEQ ID NO:2), Bacillus subtilis (SEQ ID NO:1), Rhizobium leguminosarum (SEQ ID NO:3) were evaluated for their ability to phosphorylate crotyl alcohol releasing ADP. The studied enzymatic reaction was carried out under the following conditions at 37° C.: • 50 mM Tris-HCl pH 7.5 • 10 mM MgCl2 • 100 mM KCl • 5 mM ATP • 0.4 mM NADH • 1 mM Phosphoenolpyruvate • 3 U/ml Lactate dehydrogenase • 1.5 U/ml Pyruvate kinase • 50 mM crotyl alcohol, mixture cis and trans • The pH was adjusted to 7.5
# (§5) Each assay was started by addition of a particular enzyme at a concentration 0.05 mg/ml and the disappearance of NADH was monitored by following the absorbance at 340 nm.
# (§6) Kinetic parameters of crotyl alcohol phosphorylation were determined using the spectrophotometric assay described in Example 2.
# [6] = substrate: C/C=C\CO; experiment: as above; assay type: biochemical, Escherichia coli; details: other: crotyl alcohol phosphorylation, pH 7.5, 37° C., 5 mM ATP
# Protocol: as §4, §5, §6
# [7] = substrate: C/C=C/COP(=O)(O)O; experiment: Kinetic parameters of the crotyl monophosphate phosphorylation reaction (pyruvate kinase/lactate dehydrogenase coupled spectrophotometric assay); assay type: biochemical, Thermoplasma acidophilum; details: other: trans crotyl monophosphate as a substrate; assay of Example 2; pH 7.5; 37.0 °C
# Protocol: as §4, §5
# (§7) Sequences of isopentenyl monophosphate kinases inferred from the genomes of several members of the Archaea, in particular Methanothermobacter (SEQ ID NO:5), Methanocaldococcus (SEQ ID NO:6) and Thermoplasma (SEQ ID NO:4) genus, are generated by oligonucleotide concatenation to fit the codon usage of E. coli. […] The genes thus synthesized are cloned in a pET25b expression vector and the proteins are produced according to the protocol described in Example 1. The enzymes are then assayed using the method described in Example 2 with crotyl monophosphate concentrations varying from 0 to 50 mM. The release of ADP that is associated with crotyl monophosphate phosphorylation is quantified using the pyruvate kinase/lactate dehydrogenase coupled assay. Each assay is started by addition of particular enzyme (at a final concentration from 0.05 mg/ml to 1 mg/ml) and the disappearance of NADH is monitored by following the absorbance at 340 nm.
# (§8) Cis crotyl monophosphate and trans crotyl monophosphate were synthesized upon request by a company specialized in custom synthesis (Syntheval, France). Kinetic parameters for the phosphorylation of these substrates were determined using the spectrophotometric assay described in Example 2. Kinetic parameters obtained with purified isopentenyl monophosphate kinases from different members of the Archaea kingdom are presented in Table 3 (cis crotyl monophosphate as a substrate) and Table 4 (trans crotyl monophosphate as a substrate).
# [8] = substrate: C/C=C\COP(=O)(O)O; experiment: as above; assay type: biochemical, Thermoplasma acidophilum; details: other: cis crotyl monophosphate as a substrate; assay of Example 2; pH 7.5; 37.0 °C
# Protocol: as §4, §5, §7, §8
# [9] = substrate: C/C=C/COP(=O)(O)O; experiment: as above; assay type: biochemical, Methanocaldococcus jannaschii; details: other: trans crotyl monophosphate as a substrate; assay of Example 2; pH 7.5; 37.0 °C
# Protocol: as §4, §5, §7, §8
# [10] = substrate: C/C=C\COP(=O)(O)O; experiment: as above; assay type: biochemical, Methanocaldococcus jannaschii; details: other: cis crotyl monophosphate as a substrate; assay of Example 2; pH 7.5; 37.0 °C
# Protocol: as §4, §5, §7, §8
# [11] = substrate: C/C=C/COP(=O)(O)O; experiment: as above; assay type: biochemical, Methanothermobacter thermautotrophicus; details: other: trans crotyl monophosphate as a substrate; assay of Example 2; pH 7.5; 37.0 °C
# Protocol: as §4, §5, §7, §8
# [12] = substrate: C/C=C\COP(=O)(O)O; experiment: as above; assay type: biochemical, Methanothermobacter thermautotrophicus; details: other: cis crotyl monophosphate as a substrate; assay of Example 2; pH 7.5; 37.0 °C
# Protocol: as §4, §5, §7, §8
protein,measurement,setting,value
B1,Km,[1],6000 µM
same,Km,[2],7000 µM
same,kcat,[2],3e-05 s⁻¹
B2,Km,[3],1000 µM
same,kcat,[3],6.0 s⁻¹
same,Km,[4],5000 µM
same,kcat,[4],0.05 s⁻¹
B3,Km,[5],30000 µM
same,kcat,[5],0.11 s⁻¹
same,Km,[6],13600 µM
same,kcat,[6],0.19 s⁻¹
B4,Km,[7],1000 µM
same,kcat,[7],2.2 s⁻¹
same,Km,[8],610 µM
same,kcat,[8],1.8 s⁻¹
B5,Km,[9],490 µM
same,kcat,[9],3 s⁻¹
same,Km,[10],200 µM
same,kcat,[10],3.4 s⁻¹
B6,Km,[11],450 µM
same,kcat,[11],8.7 s⁻¹
same,Km,[12],940 µM
same,kcat,[12],5.7 s⁻¹
